T1: protein zero related (PZR), tyrosine-phosphorylated
T1 chain: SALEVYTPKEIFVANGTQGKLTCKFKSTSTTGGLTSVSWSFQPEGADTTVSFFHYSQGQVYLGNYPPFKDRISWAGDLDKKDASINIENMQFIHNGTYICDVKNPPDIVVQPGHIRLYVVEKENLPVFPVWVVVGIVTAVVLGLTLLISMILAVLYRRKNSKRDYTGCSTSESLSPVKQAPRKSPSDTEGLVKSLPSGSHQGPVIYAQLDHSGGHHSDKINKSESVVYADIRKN

B1: tyrosine phosphatase SHP-2, native full-length form (protein)
chain: TSRRWFHPNITGVEAENLLLTRGVDGSFLARPSKSNPGDFTLSVRRNGAVTHIKIQNTGDYYDLYGGEKFATLAELVQYYMEHHGQLKEKNGDVIELKYPLNCADPTSERWFHGHLSGKEAEKLLTEKGKHGSFLVRESQSHPGDFVLSVRTGDDKGESNDGKSKVTHVMIRCQELKYDVGGGERFDSLTDLVEHYKKNPMVETLGTVLQLKQPLNTTRINAAEIESRVRELSKLAETTDKVKQGFWEEFETLQQQECKLLYSRKEGQRQENKNKNRYKNILPFDHTRVVLHDGDPNEPVSDYINANIIMPEFETKCNNSKPKKSYIATQGCLQNTVNDFWRMVFQENSRVIVMTTKEVERGKSKCVKYWPDEYALKEYGVMRVRNVKESAAHDYTLRELKLSKVGQGNTERTVWQYHFRTWPDHGVPSDPGGVLDFLEEVHHKQESIMDAGPVVVHCSAGIGRTGTFIVIDILIDIIREKGVDCDIDVPKTIQMVRSQRSGMVQTEAQYRFIYMAVQHYIETLQRRIEEEQKSKRKGHEYTNIKYSLADQTSGDQSPLPPCTPTPPCAEMREDSARVYENVGLMQQQKSFR
B2: SH2 domain-truncated form of SHP-2 (protein)
chain: NPMVETLGTVLQLKQPLNTTRINAAEIESRVRELSKLAETTDKVKQGFWEEFETLQQQECKLLYSRKEGQRQENKNKNRYKNILPFDHTRVVLHDGDPNEPVSDYINANIIMPEFETKCNNSKPKKSYIATQGCLQNTVNDFWRMVFQENSRVIVMTTKEVERGKSKCVKYWPDEYALKEYGVMRVRNVKESAAHDYTLRELKLSKVGQGNTERTVWQYHFRTWPDHGVPSDPGGVLDFLEEVHHKQESIMDAGPVVVHCSAGIGRTGTFIVIDILIDIIREKGVDCDIDVPKTIQMVRSQRSGMVQTEAQYRFIYMAVQHYIETLQRRIEEEQKSKRKGHEYTNIKYSLADQTSGDQSPLPPCTPTPPCAEMREDSARVYENVGLMQQQKSFR

Target: T1, protein zero related (PZR), …

Row | Protein | dephosphorylation of purified p43 in vitro (anti-phosphotyrosine Western blot) | in vitro dephosphorylation of immuno-purified tyrosine-phosphorylated PZR | in vitro dephosphorylation of immuno-purified tyrosine-phosphorylated PZR (anti-phosphotyrosine Western blot)
1 | B1 | SHP-2 caused complete dephosphorylation of p43 | higher concentrations of SHP-2 (up to 5 µg/ml) helped to push the dephosphorylation to near completion | full length SHP-2 caused rapid dephosphorylation
2 | B2 |  |  | the truncated enzyme had essentially no effect

From patent US20030171565
